Read-outs that look alike come from different tables or passages of the source. Where a SMILES comes first, the peptide text is derived from it. Bridges are numbered along the chain shown (N, C = ends). [ ]: non-standard residue; d: D form. The star is where a group is joined. DOTA = O=C(O)CN1CCN(CC(=O)O)CCN(CC(=O)*)CCN(CC(=O)O)CC1; dPhe(4-NHCONH2) = NC(=O)Nc1ccc(C[C@@H](N)C(=O)O)cc1; Dihydroorotyl(S) = O=C1C[C@@H](C(=O)*)NC(=O)N1; Phe(4-Cl) = N[C@@H](Cc1ccc(Cl)cc1)C(=O)O; Phe(4-NH2) = Nc1ccc(C[C@H](N)C(=O)O)cc1
Experiments:
Type in all cases: in vivo, human
[1] = tested on: patients with progressive, SSTR-positive NETs; assay: Model-based organ dosimetry, OLINDA/EXM version 1.0 (part B, first cycle); conditions: OLINDA/EXM 1.0, part B, median
Method: Patient-specific dosimetry calculations were performed after each treatment cycle in both parts A and B, using the absorbed dose calculation features of the NUKDOS software for image-based dosimetry calculations. The NUKDOS software was chosen as it allowed for an integral approach to organ dosimetry (including image quantification, time-activity curve-fitting and dosimetry calculation). For the bone marrow, both image-based and blood-based calculations were performed in part A [28, 29]. In part B, only image-based bone marrow dosimetry was performed. Organ Level INternal Dose Assessment/EXponential Modelling (OLINDA/EXM) version 1.0 software, the most widely used version at the time of the study, was used to perform model-based dosimetry calculations, which were only performed after the first [^177Lu]Lu-satoreotide tetraxetan cycle for patients in part B. To generate organ-specific absorbed doses, TIACs were used as input data. Full details on OLINDA/EXM software settings and organ-specific TIAC calculation methods are provided in the Supplementary Information.
Patient-specific dosimetry calculations were performed according to European Association of Nuclear Medicine Dosimetry Guidance after each treatment cycle in both parts A and B, using the absorbed dose calculation features of the NUKDOS software (i.e., integration of the time-activity curves, calculation of the absorbed dose). Model-based dosimetry calculations were only performed after the first [^177Lu]Lu-satoreotide tetraxetan cycle and for patients in part B. To generate organ-specific absorbed doses, TIACs were used as input data in the Organ Level INternal Dose Assessment/EXponential Modelling (OLINDA/EXM) software version 1.0, which was granted Food and Drug Administration 510(k) clearance in June 2004. The following settings were applied: ^177Lu isotope, no bladder voiding model, adult male or female phantom. As the OLINDA/EXM software makes no distinction between the right and left kidneys, their TIACs were summed. In case biokinetic data were available for one kidney only, the kidney TIAC value was doubled. For the bone marrow, the patient-specific mass of the analysed vertebrae was used for upscaling image-based TIAC values according to the OLINDA/EXM phantom gender-specific masses (mBone marrow=1,120 g for males and 1,300 g for females):
The kidney, spleen, liver, and bone marrow TIACs were subtracted from the patient’s whole-body TIAC to obtain the TIAC of the remainder of the body.

[2] = tested on: patients with progressive, SSTR-positive NETs; assay: Time-activity curves of whole body and organs (planar whole-body imaging, SPECT/CT); conditions: first treatment cycle, parts A and B; median
Method: In both parts A and B of the study, patients underwent planar whole-body imaging at 4 h and 1, 2, 3, and 6 days after each [^177Lu]Lu-satoreotide tetraxetan treatment cycle. Patients in part A also underwent single-photon emission computed tomography/computed tomography (SPECT/CT) at 24 h after each [^177Lu]Lu-satoreotide tetraxetan cycle. Those in part B underwent SPECT/CT, immediately before or after planar scintigraphy, at 4 h, and 1, 2, 3, and 6 days after each [^177Lu]Lu-satoreotide tetraxetan administration. Full details of the image acquisition methodology are provided in the Supplementary Information. Reconstruction parameters were set up to produce isotropic voxels of < 5 mm; voxels were continuous throughout the field of view. Anatomic coverage of the acquisition was determined according to the patients’ tumour locations on the planar whole-body scan acquisition with liver, both kidneys and spleen in the same bed position. […] VOIs for the same organs were drawn for all SPECT/CT images acquired in part B. All ROIs/VOIs were then used for activity quantification. […] Full details of the tumour delineation and activity quantification methodology are provided in the Supplementary Information.

[3] = Urinary excretion of radioactivity within 48 h (gamma counter); conditions: first treatment cycle; for dose excreted: human, urine, iv, total radioactivity, read-out: Cumulative urinary excretion within 48 h
Method: To generate pharmacokinetic data, blood samples (2 mL) were taken at the stop of infusion (0 min) and 5, 30, and 60 min, 4 h, and 1, 2, 3, and 6 days after the end of each [^177Lu]Lu-satoreotide tetraxetan administration. Urine samples were collected over three intervals within 48 h (0–6 h, 6–24 h, and 24–48 h in part A; 0–4 h, 4–24 h, and 24–48 h in part B) following the first treatment cycle of [^177Lu]Lu-satoreotide tetraxetan. Total activity concentrations in whole blood and urine were determined locally, using a gamma counter calibrated for lutetium-177. In two selected study centres, additional blood samples (2 mL) were collected at 1 min, 4 h, and 1, 2, 3, and 6 days after each [^177Lu]Lu-satoreotide tetraxetan administration to evaluate potential radioactive metabolites in plasma.

C[C@@H](O)[C@@H]1NC(=O)[C@H](CCCCN)NC(=O)[C@@H](Cc2ccc(NC(N)=O)cc2)NC(=O)[C@H](Cc2ccc(NC(=O)[C@@H]3CC(=O)NC(=O)N3)cc2)NC(=O)[C@H](NC(=O)[C@H](Cc2ccc(Cl)cc2)NC(=O)CN2CCN(CC(=O)O)CCN(CC(=O)O)CCN(CC(=O)O)CC2)CSSC[C@@H](C(=O)N[C@H](Cc2ccc(O)cc2)C(N)=O)NC1=O [[^177Lu]Lu-satoreotide tetraxetan, metal not drawn] ({DOTA}-[Phe(4-Cl)][dC][Phe(4-NH2)](Dihydroorotyl(S))[dPhe(4-NHCONH2)]KTC[dY]-NH2; disulfide 2-7 (inferred); C-terminus assumed)
Calculated absorbed dose for 3 cycles of 4.5 GBq each, Red marrow ([1]; N = 18): 1.47 Gy | Calculated absorbed dose for 3 cycles of 4.5 GBq each, Spleen ([1]; N = 18): 8.78 Gy | Calculated absorbed dose for 3 cycles of 4.5 GBq each, Adrenals ([1]; N = 24): 1.03 Gy | Calculated absorbed dose for 3 cycles of 4.5 GBq each, Brain ([1]; N = 24): 0.96 Gy | Calculated absorbed dose for 3 cycles of 4.5 GBq each, Breasts ([1]; N = 24): 0.95 Gy | Calculated absorbed dose for 3 cycles of 4.5 GBq each, Gallbladder wall ([1]; N = 24): 1.02 Gy | Calculated absorbed dose for 3 cycles of 4.5 GBq each, Heart wall ([1]; N = 24): 0.99 Gy | Calculated absorbed dose for 3 cycles of 4.5 GBq each, Kidneys ([1]; N = 24): 14.18 Gy | Calculated absorbed dose for 3 cycles of 4.5 GBq each, Lungs ([1]; N = 24): 0.98 Gy | Calculated absorbed dose for 3 cycles of 4.5 GBq each, Muscle ([1]; N = 24): 0.97 Gy | Calculated absorbed dose for 3 cycles of 4.5 GBq each, Osteogenic cells ([1]; N = 24): 3.96 Gy | Calculated absorbed dose for 3 cycles of 4.5 GBq each, Ovaries ([1]; N = 24): 1.00 Gy | Calculated absorbed dose for 3 cycles of 4.5 GBq each, Pancreas ([1]; N = 24): 1.05 Gy | Calculated absorbed dose for 3 cycles of 4.5 GBq each, Skin ([1]; N = 24): 0.93 Gy | Calculated absorbed dose for 3 cycles of 4.5 GBq each, Small intestine ([1]; N = 24): 1.00 Gy | Calculated absorbed dose for 3 cycles of 4.5 GBq each, Stomach wall ([1]; N = 24): 1.01 Gy | Calculated absorbed dose for 3 cycles of 4.5 GBq each, Thymus ([1]; N = 24): 0.98 Gy | Calculated absorbed dose for 3 cycles of 4.5 GBq each, Thyroid ([1]; N = 24): 0.96 Gy | Calculated absorbed dose for 3 cycles of 4.5 GBq each, Total body ([1]; N = 24): 1.08 Gy | Calculated absorbed dose for 3 cycles of 4.5 GBq each, Liver ([1]; N = 24, may be an underestimation): 1.07 Gy | Calculated absorbed dose for 3 cycles of 4.5 GBq each, Uterus ([1]; female patients N = 11): 1.13 Gy | Calculated absorbed dose for 3 cycles of 4.5 GBq each, Testes ([1]; male patients N = 13): 0.72 Gy | Calculated absorbed dose for 3 cycles of 4.5 GBq each, LLI wall ([1]; lower large intestine, N = 24): 1.00 Gy | Calculated absorbed dose for 3 cycles of 4.5 GBq each, ULI wall ([1]; upper large intestine, N = 24): 1.01 Gy | Calculated absorbed dose for 3 cycles of 4.5 GBq each, UB wall ([1]; urinary bladder, N = 24): 0.99 Gy | Whole body uptake at 6 days [2]: 11.5 % administered activity | Cumulative urinary excretion within 48 h ([3]; patients treated with 4.5 GBq): 57–66% | Radioactivity excreted via urine within 48 hours ([3]; patients treated with 4.5 GBq, range of medians across groups): 2.6–3.0 GBq | Radioactivity excreted via urine within 48 hours ([3]; patients treated with 6 GBq, median): 3.4 GBq | dose excreted ([3]; patients treated with 4.5 GBq): 57 to 66% | dose excreted ([3]; patients treated with 6 GBq): ~57%

From article PMC11178655, “Dosimetry and pharmacokinetics of [^177Lu]Lu-satoreotide tetraxetan in patients with progressive neuroendocrine tumours” (European Journal of Nuclear Medicine and Molecular Imaging, 2024)
